Source: article PMC11806106

Experiments:
[1] = molecular target: MOR FRET sensor (rat MOR with sYFP2 inserted after G267, truncated after T370, mTurquoise2 at the C-terminus) (rat) (UniProt P33535)
[2] = molecular target: MOR FRET sensor (rat MOR with sYFP2 inserted after G267, truncated after T370, mTurquoise2 at the C-terminus) (rat) (UniProt P33535); remark: listed apart in the source

T370 sequence (P33535 1-370): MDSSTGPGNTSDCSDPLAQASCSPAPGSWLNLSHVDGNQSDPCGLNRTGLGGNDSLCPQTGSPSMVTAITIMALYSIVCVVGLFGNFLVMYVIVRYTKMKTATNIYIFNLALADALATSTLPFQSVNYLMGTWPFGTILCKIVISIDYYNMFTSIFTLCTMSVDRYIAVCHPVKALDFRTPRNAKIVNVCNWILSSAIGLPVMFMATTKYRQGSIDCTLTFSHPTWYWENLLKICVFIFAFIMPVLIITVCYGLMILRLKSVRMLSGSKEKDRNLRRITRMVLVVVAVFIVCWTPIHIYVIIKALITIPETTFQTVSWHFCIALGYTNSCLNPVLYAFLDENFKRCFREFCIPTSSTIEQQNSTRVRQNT

| Substance | half-time of deactivation of the MOR FRET sensor after washout of 100 µM agonist (single-cell FRET) [1] | EC50 of the agonist-induced change of the FRET emission ratio of the MOR FRET conformation sensor (concentration-response, 96-well plate reader) [2] | on-rate Kon, calculated from the Koff of sensor deactivation and the EC50 (single-cell FRET, 100 µM agonist) [1] |
| --- | --- | --- | --- |
| Met-enkephalin (peptide) | < 10 s |  |  |
| DAMGO (peptide) | < 10 s | 0.43 µM | 167000 M⁻¹ s⁻¹ |
